Laboratory results: patent US20160264960A1 (Chugai, published 2016)
Values belong to the binder of their own block, whether it stands above or below them.

What was measured:
soluble human plexin A1 [1] = target: T1, soluble human plexin A1 (human, UniProt Q9UIW2 27-1244); assay: biolayer interferometry (Octet RED384), antibody on Protein G biosensor, soluble human plexin A1 in solution; antigen concentration not given [d]
T1 construct: also called hPlexin A1; human Plexin A1 extracellular region
T1 sequence (Q9UIW2 other isoform, or with tags, fused parts or gaps): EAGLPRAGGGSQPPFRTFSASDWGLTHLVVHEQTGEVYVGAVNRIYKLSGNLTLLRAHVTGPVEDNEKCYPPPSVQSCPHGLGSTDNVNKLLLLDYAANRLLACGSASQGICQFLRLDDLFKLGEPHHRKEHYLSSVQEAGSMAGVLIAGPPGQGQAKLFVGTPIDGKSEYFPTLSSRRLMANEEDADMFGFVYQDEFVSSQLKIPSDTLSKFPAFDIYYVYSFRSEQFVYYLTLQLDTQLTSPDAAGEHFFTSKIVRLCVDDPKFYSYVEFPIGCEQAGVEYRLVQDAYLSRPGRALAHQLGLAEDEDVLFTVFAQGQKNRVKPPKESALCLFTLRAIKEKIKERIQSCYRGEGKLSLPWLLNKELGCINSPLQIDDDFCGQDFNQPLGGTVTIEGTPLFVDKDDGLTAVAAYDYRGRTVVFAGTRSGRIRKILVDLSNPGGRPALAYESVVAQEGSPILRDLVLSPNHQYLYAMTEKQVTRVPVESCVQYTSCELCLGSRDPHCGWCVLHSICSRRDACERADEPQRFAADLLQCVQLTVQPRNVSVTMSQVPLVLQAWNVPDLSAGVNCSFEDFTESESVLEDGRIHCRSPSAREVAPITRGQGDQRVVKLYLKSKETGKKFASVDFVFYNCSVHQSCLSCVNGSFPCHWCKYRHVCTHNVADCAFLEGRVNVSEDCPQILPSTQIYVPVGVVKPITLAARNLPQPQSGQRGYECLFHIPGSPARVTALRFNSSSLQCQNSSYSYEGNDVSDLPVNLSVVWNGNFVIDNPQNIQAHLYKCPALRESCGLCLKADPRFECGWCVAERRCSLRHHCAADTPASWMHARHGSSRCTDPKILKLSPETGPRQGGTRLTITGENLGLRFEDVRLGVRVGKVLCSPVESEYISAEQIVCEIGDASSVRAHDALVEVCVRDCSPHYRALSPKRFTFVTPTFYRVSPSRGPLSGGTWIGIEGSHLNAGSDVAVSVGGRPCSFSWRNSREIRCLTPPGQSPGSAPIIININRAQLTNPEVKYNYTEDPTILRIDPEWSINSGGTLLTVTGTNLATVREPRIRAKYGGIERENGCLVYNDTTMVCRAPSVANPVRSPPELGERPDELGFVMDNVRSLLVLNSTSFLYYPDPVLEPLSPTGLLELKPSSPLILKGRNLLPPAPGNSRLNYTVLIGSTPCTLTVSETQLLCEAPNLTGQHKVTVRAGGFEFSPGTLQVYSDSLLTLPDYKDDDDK
Experimental: (§1) Each antibody (PANH-2_52, PANH-2_68, and PANH-3_10) obtained in the paragraph (4-1) or an anti-human IL-6R antibody PF1 antibody was evaluated for its binding activity against soluble human plexin A1 and soluble human IL-6R using Octet RED384 (forteBIO). The binding evaluation was conducted using HBS-EP+Buffer (GE Healthcare Japan Corp.) as a buffer.
(§2) After binding of the antibody to Protein G Biosensors (forteBIO), soluble human plexin A1 or soluble human IL-6R was allowed to interact with the antibody on the biosensor through contact therebetween for 120 seconds, and subsequently contacted with the buffer for 120 seconds to measure the antibody-antigen interaction. Then, the biosensor was regenerated through contact with 10 mmol/L glycine-HCl (pH 1.5). The measurement was conducted at 30° C.

soluble human IL-6R [2] = target: T2, soluble human IL-6R (human, UniProt P08887 20-357); assay: biolayer interferometry (Octet RED384), antibody on Protein G biosensor, soluble human IL-6R in solution, 120 s association and 120 s dissociation [d]
T2 construct: Analyte in the Octet experiments; also called hIL-6R; soluble hIL-6R
T2 sequence: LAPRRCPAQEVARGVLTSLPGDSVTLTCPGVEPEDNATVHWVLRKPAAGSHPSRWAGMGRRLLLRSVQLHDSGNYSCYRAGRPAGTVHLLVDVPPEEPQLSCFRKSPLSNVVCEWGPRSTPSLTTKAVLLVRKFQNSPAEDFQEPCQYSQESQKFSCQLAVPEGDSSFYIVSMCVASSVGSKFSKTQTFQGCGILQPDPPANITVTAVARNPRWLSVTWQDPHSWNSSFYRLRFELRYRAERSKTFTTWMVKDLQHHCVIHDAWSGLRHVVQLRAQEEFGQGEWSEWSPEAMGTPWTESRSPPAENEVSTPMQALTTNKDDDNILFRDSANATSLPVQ
Experimental: as §1, §2

mouse IgA = target: T3, mouse IgA (mouse, UniProt P01878 114-344); assay: biolayer interferometry (Octet RED384), antibody on Protein G biosensor, mouse IgA in solution; antigen concentration not given [c]
T3 sequence (looked up): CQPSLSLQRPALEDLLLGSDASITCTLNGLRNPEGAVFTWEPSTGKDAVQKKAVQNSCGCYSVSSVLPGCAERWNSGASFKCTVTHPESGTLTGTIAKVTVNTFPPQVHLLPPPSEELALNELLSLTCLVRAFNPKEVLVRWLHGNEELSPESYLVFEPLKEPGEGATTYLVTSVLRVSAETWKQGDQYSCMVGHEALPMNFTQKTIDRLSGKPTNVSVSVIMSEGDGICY
Experimental: (§3) Each antibody (mIANH-2_27 and mIANH-3_79) obtained in the paragraph (4-1) or a PF1 antibody was evaluated for its binding activity against mouse IgA or soluble human IL-6R using Octet RED384 (forteBIO). The binding evaluation was conducted using HBS-EP+Buffer (GE Healthcare Japan Corp.) as a buffer.
as §2, with “mouse IgA” for “soluble human plexin A1”

soluble human IL-6R [3] = target: T2, soluble human IL-6R; assay: biolayer interferometry (Octet RED384), antibody on Protein G biosensor, soluble human IL-6R in solution; antigen concentration not given [b]
Experimental: as §1, §2

soluble human plexin A1 [4] = target: T1, soluble human plexin A1; assay: biolayer interferometry (Octet RED384), antibody on Protein G biosensor, soluble human plexin A1 in solution, 120 s association and 120 s dissociation [b]
Experimental: as §1, §2

soluble human IL-6R [5] = target: T2, soluble human IL-6R; assay: biolayer interferometry (Octet RED384), antibody on Protein G biosensor, soluble human IL-6R in solution; antigen concentration not given [a]
Experimental: as §3
as §2, with “mouse IgA” for “soluble human plexin A1”

soluble human IL-6R [6] = target: T2, soluble human IL-6R; assay: biolayer interferometry (Octet RED384), antibody on Protein G biosensor, soluble human IL-6R in solution; antigen concentration not given [c]
Experimental: as §1, §2

soluble human plexin A1 [7] = target: T1, soluble human plexin A1; assay: biolayer interferometry (Octet RED384), antibody on Protein G biosensor, soluble human plexin A1 in solution, 120 s association and 120 s dissociation [c]
Experimental: as §1, §2

soluble human IL-6R [8] = target: T2, soluble human IL-6R; assay: biolayer interferometry (Octet RED384), antibody on Protein G biosensor, soluble human IL-6R in solution; antigen concentration not given [b]; remark: listed apart in the source
Experimental: as §3
as §2, with “mouse IgA” for “soluble human plexin A1”

soluble human plexin A1 [9] = target: T1, soluble human plexin A1; assay: biolayer interferometry (Octet RED384), antibody on Protein G biosensor, soluble human plexin A1 in solution, 120 s association and 120 s dissociation [a]
Experimental: as §1, §2

soluble human IL-6R [10] = target: T2, soluble human IL-6R; assay: biolayer interferometry (Octet RED384), antibody on Protein G biosensor, soluble human IL-6R in solution; antigen concentration not given [a]; remark: listed apart in the source
Experimental: as §1, §2

[11] = target: T4, human plexin A1 protein sema domain (from glutamic acid at position 28 to serine at position 514) tagged at … (human, UniProt Q9UIW2 28-514); assay: SPR, Biacore T200; antibody held by Protein A/G on CM4 chip, sema domain as analyte
T4 construct: also called human plexin A1 sema domain
T4 sequence: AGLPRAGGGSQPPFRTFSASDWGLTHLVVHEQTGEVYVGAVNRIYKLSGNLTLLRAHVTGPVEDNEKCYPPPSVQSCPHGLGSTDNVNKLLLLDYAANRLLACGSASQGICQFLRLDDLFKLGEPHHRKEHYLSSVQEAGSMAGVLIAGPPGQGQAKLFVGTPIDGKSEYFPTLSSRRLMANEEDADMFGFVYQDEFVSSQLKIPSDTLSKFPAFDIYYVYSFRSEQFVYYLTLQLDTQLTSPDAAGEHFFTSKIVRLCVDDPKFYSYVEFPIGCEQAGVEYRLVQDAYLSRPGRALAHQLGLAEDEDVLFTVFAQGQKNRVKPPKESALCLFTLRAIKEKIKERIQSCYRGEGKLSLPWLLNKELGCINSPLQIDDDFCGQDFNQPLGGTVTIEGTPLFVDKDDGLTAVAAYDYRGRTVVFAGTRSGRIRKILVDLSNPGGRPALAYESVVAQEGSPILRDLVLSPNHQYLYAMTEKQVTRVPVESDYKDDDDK
Experimental: (§4) Each antibody obtained in the paragraph (10-1) was evaluated for its binding activity against the antigen by surface plasmon resonance (SPR) analysis.
(§5) In the SPR analysis, the antibody was analyzed using Biacore T200 (GE Healthcare Japan Corp.). The anti-human plexin A1 antibody was immobilized onto the surface of Sensor Chip CM4 using Recombinant Protein A/G (Thermo Fisher Scientific Inc.) and Amine Coupling Kit (GE Healthcare Japan Corp.). The antigen used was a human plexin A1 protein sema domain (from glutamic acid at position 28 to serine at position 514) tagged at the C terminus of the protein with FLAG tag. The antigen was prepared as follows: an expression vector carrying a cDNA corresponding to the human plexin A1 sema domain was transferred to FreeStyle 293 cells. After culture, the obtained culture solution was passed through an anti-FLAG-M2 antibody-immobilized affinity column. A fraction eluted with the FALG peptide was purified by gel filtration. The obtained antigen was serially diluted with 20 mM ACES, 150 mM NaCl, 0.05% polysorbate 20, and 1.2 mM CaCl₂ (pH 7.4) and added to the sensor chip at a flow rate of 30 μL/min. In this assay system, the dissociation constant (KD) between the human plexin A1 protein and the anti-human plexin A1 antibody was calculated using data analysis software (BIA T200 Evaluation software ver. 2).

[12] = target: T4, human plexin A1 protein sema domain …; assay: SPR, Biacore T200; KD against parent antibody hPANLB2-3_342
Experimental: as §4, §5

binding result (soluble human IL-6R [6]): no binding
binding result (soluble human plexin A1 [7]): binds
B4: PANH-3_10 (antibody, human IgG1, kappa, V domains shown)
VH: QVQLQESGPGLVKPSETLSLTCTVSGGSISSSSYYWGWIRQPPGKGLEWIGSIYYSGSTYYNPSLKSRVTISVDTSKNQFSLKLSSVTAADTAVYYCARDPVQLEHSRYYYYYGMDVWGQGTTVTVSS
VL: DIQMTQSPSSLSASVGDSVTITCQASQDISSYLNWYQQKPGKAPELLIYYGSELHSGVPSRFSGSGSGTDFTFTISSLEAEDAATYYCGQGNRLPYTFGQGTKVEIER
notes: IgG with the PF1 L chain

binding result (soluble human IL-6R [8]): no binding
B5: mIANH-3_79 (antibody, human IgG1, kappa, V domains shown)
VH: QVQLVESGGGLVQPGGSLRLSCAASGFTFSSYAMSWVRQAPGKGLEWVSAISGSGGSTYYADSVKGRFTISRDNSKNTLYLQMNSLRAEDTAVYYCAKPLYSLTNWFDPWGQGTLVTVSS
VL: DIQMTQSPSSLSASVGDSVTITCQASQDISSYLNWYQQKPGKAPELLIYYGSELHSGVPSRFSGSGSGTDFTFTISSLEAEDAATYYCGQGNRLPYTFGQGTKVEIER
notes: IgG with the PF1 L chain

Continued, binder first:

B1: PF1 (antibody, human IgG1, kappa, V domains shown)
VH: QVQLQESGPGLVKPSETLSLTCAVSGYSISDDHAWSWVRQPPGEGLEWIGYISYSGITNYNPSLKGRVTISRDTSKNQFSLKLSSVTAADTAAYYCARVLARITAMDYWGEGTLVTVSS
VL: DIQMTQSPSSLSASVGDSVTITCQASQDISSYLNWYQQKPGKAPELLIYYGSELHSGVPSRFSGSGSGTDFTFTISSLEAEDAATYYCGQGNRLPYTFGQGTKVEIER
notes: also called PF1 antibody; anti-IL-6R antibody PF1 antibody
binding result (soluble human plexin A1 [1]): no binding
binding result (soluble human IL-6R [2]): binds
binding result (mouse IgA): no binding

B2: PANH-2_68 (antibody, human IgG1, kappa, V domains shown)
VH: QVQLVQSGAEVKKPGASVKVSCKASGYTFTSYGISWVRQAPGQGLEWMGWISAYNGNTNYAQKLQGRVTMTTDTSTSTAYMELRSLRSDDTAVYYCARAHTKDIWGQGTMVTVSS
VL: DIQMTQSPSSLSASVGDSVTITCQASQDISSYLNWYQQKPGKAPELLIYYGSELHSGVPSRFSGSGSGTDFTFTISSLEAEDAATYYCGQGNRLPYTFGQGTKVEIER
notes: IgG with the PF1 L chain
binding result (soluble human IL-6R [3]): no binding
binding result (soluble human plexin A1 [4]): binds

B3: mIANH-2_27 (antibody, human IgG1, kappa, V domains shown)
VH: EVQLVQSGAEVKKPGASVKVSCKASGYTFTGYYIHWVRQAPGQGLEWMGRINPNSGGTNYAQKFQGRVTMTRDTSISTAYMQLSRLRSDDTAVYYCARDNSGWGGFDAFDIWGQGTMVTVSS
VL: DIQMTQSPSSLSASVGDSVTITCQASQDISSYLNWYQQKPGKAPELLIYYGSELHSGVPSRFSGSGSGTDFTFTISSLEAEDAATYYCGQGNRLPYTFGQGTKVEIER
notes: IgG with the PF1 L chain
binding result (soluble human IL-6R [5]): no binding

B6: PANH-2_52 (antibody, human IgG1, kappa, V domains shown)
VH: EVQLVQSGGGVVQPGRSLRLSCAASGFTFSSYAMHWVRQAPGKGLEWVAVISYDGSNKYYADSVKGRFTISRDNSKNTLYLQMNSLRAEDTAVYYCARPPMEWLFWDAFDIWGQGTMVTVSS
VL: DIQMTQSPSSLSASVGDSVTITCQASQDISSYLNWYQQKPGKAPELLIYYGSELHSGVPSRFSGSGSGTDFTFTISSLEAEDAATYYCGQGNRLPYTFGQGTKVEIER
notes: IgG with the PF1 L chain
binding result (soluble human plexin A1 [9]): binds
binding result (soluble human IL-6R [10]): no binding

B7: PLR2H342#009 (antibody, human IgG1, lambda, V domains shown)
VH: EVQLVQSGAEVKKPGASVKVSCKASGYTFTSYGISWVRQAPGQGLEWMGWISAYNGNTNYAQKLQGRVTMTTDTSTSTAYMELRSLRSDDTAVYYCARHAGYYYGMDVWGKGTMVTVSS
VL: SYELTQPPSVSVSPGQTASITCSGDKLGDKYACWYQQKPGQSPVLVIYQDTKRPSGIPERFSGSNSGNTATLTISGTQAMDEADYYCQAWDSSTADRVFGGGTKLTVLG
notes: IgG from the 342H-NL library
Kd [11]: 1.82 nM
Relative KD improvement [12]: 19 fold
